The labels stand for the following.
B1: Peptide-73 (peptide)
peptide: VYCGPEFDESVGCA
modifications: cysteine pairing not given here; also: biotinylated, site not given here
notes: mask peptide for the CD3 scFv
B2: TCE-20 (anti-CD3 scFv S110A; anti-TROP2 wt) (bispecific antibody)
light: DIQLTQSPSSLSASVGDRVSITCKASQDVSIAVAWYQQKPGKAPKLLIYSASYRYTGVPDRFSGSGSGTDFTLTISSLQPEDFAVYYCQQHYITPLTFGAGTKVEIKRTVAAPSVFIFPPSDEQLKSGTASVVCLLNNFYPREAKVQWKVDNALQSGNSQESVTEQDSKDSTYSLSSTLTLSKADYEKHKVYACEVTHQGLSSPVTKSFNRGEC
heavy: not shown
notes: scFv on the Fab heavy chain; also called TCE-20 (S110A)
B3: TCE-38 (anti-CD3 scFv F240A; anti-TROP2 F108A) (bispecific antibody)
light: B2 light
heavy: not shown
notes: scFv on the Fab heavy chain

Like-named read-outs stand apart in the source and are kept apart here. Where no end group is shown, it is not given here.

The target in assay [1] is T1, TCE-36 (anti-CD3 scFv H101A; anti-TROP2 F108A).
T1 construct: scFv on the Fab heavy chain
Description: competition ELISA, TCE on captured CD3.

The target of assay [2] is T2, TCE-7 (anti-CD3 scFv wt; anti-TROP2 F108A).
T2 construct: scFv on the Fab heavy chain
In words: competition ELISA, TCE on captured CD3.

Assay [3] concerns the target T3, TCE-39 (anti-CD3 scFv P41S, A49G, N87S, L150F, T151S, G163R, P175A, K181T, T200V, A202D, L208I, G211N, L217I, …).
T3 construct: scFv on the Fab heavy chain
Description: competition ELISA, TCE on captured CD3. For orientation: ELISA stands for enzyme-linked immunosorbent assay.

In assay [4] the target is T4, TCE-37 (anti-CD3 scFv F104A; anti-TROP2 F108A).
T4 construct: scFv on the Fab heavy chain
In words: competition ELISA, TCE on captured CD3.

In assay [5] the target is B3. In words: competition ELISA, TCE on captured CD3.
The target in assay [6] is T5, TCE-14 (anti-CD3 scFv F104A; anti-TROP2 wt).
T5 construct: scFv on the Fab heavy chain; also called TCE-14 (F104A)
In words: competition ELISA, TCE on captured CD3.

Assay [7] addresses T6, TCE-11 (anti-CD3 scFv H101A; anti-TROP2 wt).
T6 construct: scFv on the Fab heavy chain; also called TCE-11 (H101A)
In words: competition ELISA, TCE on captured CD3.

Assay [8] concerns the target T7, TCE-13 (anti-CD3 scFv N103A; anti-TROP2 wt).
T7 construct: scFv on the Fab heavy chain; also called TCE-13 (N103A)
In words: competition ELISA, TCE on captured CD3.

Assay [9] deals with B2. In words: competition ELISA (IC50 above limit); Table 42 Peptide-73 series (FIGS. 103A-103C), limit >3 µM.
Assay [10] deals with T8, TCE-10 (anti-CD3 scFv R100A; anti-TROP2 wt).
T8 construct: scFv on the Fab heavy chain; also called TCE-10 (R100A)
The description is as above.

For assay [11], the target named is T9, TCE-22 (anti-CD3 scFv W112A; anti-TROP2 wt).
T9 construct: scFv on the Fab heavy chain; also called TCE-22 (W112A)
In words: competition ELISA, TCE on captured CD3; Table 41 run, peptide series with ceiling >100 µM.

In assay [12] the target is T10, TCE-31 (anti-CD3 scFv W238A; anti-TROP2 wt).
T10 construct: scFv on the Fab heavy chain; also called TCE-31 (W238A)
The assay is described as above.

Assay [13] addresses B2. Description: competition ELISA, TCE on captured CD3; Table 40 peptide panel (FIGS. 91-102), limit >100 µM.
Assay [14] addresses T8, TCE-10 (anti-CD3 scFv R100A; anti-TROP2 …). The assay is described as above.
In assay [15] the target is T11, TCE-16 (anti-CD3 scFv N106A; anti-TROP2 wt).
T11 construct: scFv on the Fab heavy chain
In words: competition ELISA, TCE on captured CD3.

The target in assay [16] is T5, TCE-14 (anti-CD3 scFv F104A; anti-TROP2 …). Description: competition ELISA, TCE on captured CD3. The source holds these as a separate data set.
Assay [17] addresses T12, TCE-29 (anti-CD3 scFv N236A; anti-TROP2 wt).
T12 construct: scFv on the Fab heavy chain
Description: competition ELISA, TCE on captured CD3.

Assay [18] has as its target B2. In words: competition ELISA, TCE on captured CD3.
Assay [19] deals with T13, TCE-19 (anti-CD3 scFv I109A; anti-TROP2 wt).
T13 construct: scFv on the Fab heavy chain
Description: competition ELISA, TCE on captured CD3.

For assay [20], the target named is T14, TCE-33 (anti-CD3 scFv F240A; anti-TROP2 wt).
T14 construct: scFv on the Fab heavy chain; also called TCE-33 (F240A)
Description: competition ELISA, TCE on captured CD3.

Assay [21] addresses T15, TCE-25 (anti-CD3 scFv L232A; anti-TROP2 wt).
T15 construct: scFv on the Fab heavy chain
In words: competition ELISA, TCE on captured CD3.

The target of assay [22] is T16, TCE-30 (anti-CD3 scFv R237A; anti-TROP2 wt).
T16 construct: scFv on the Fab heavy chain
Description: competition ELISA, TCE on captured CD3.

Assay [23] deals with T8, TCE-10 (anti-CD3 scFv R100A; anti-TROP2 …). Description: competition ELISA, TCE on captured CD3.
The target in assay [24] is T6, TCE-11 (anti-CD3 scFv H101A; anti-TROP2 …). In words: competition ELISA, TCE on captured CD3. The source holds these as a separate data set.
The target of assay [25] is T17, TCE-28 (anti-CD3 scFv S235A; anti-TROP2 wt).
T17 construct: scFv on the Fab heavy chain
Description: competition ELISA, TCE on captured CD3.

In assay [26] the target is T18, TCE-18 (anti-CD3 scFv Y108A; anti-TROP2 wt).
T18 construct: scFv on the Fab heavy chain
Description: competition ELISA, TCE on captured CD3.

For assay [27], the target named is T7, TCE-13 (anti-CD3 scFv N103A; anti-TROP2 …). Description: competition ELISA, TCE on captured CD3. This is another data set of the same source.
In assay [28] the target is T19, TCE-12 (anti-CD3 scFv G102A; anti-TROP2 wt).
T19 construct: scFv on the Fab heavy chain
In words: competition ELISA, TCE on captured CD3.

For assay [29], the target named is T20, TCE-15 (anti-CD3 scFv G105A; anti-TROP2 wt).
T20 construct: scFv on the Fab heavy chain
In words: competition ELISA, TCE on captured CD3.

The target in assay [30] is T21, TCE-1 (anti-CD3 scFv wt; anti-TROP2 Fab wt).
T21 construct: anti-CD3 scFv fused to the N-terminus of the anti-TROP2 Fab heavy chain; also called TCE-1 (wt)
In words: competition ELISA, TCE on captured CD3.

For assay [31], the target named is T22, TCE-17 (anti-CD3 scFv S107A; anti-TROP2 wt).
T22 construct: scFv on the Fab heavy chain
In words: competition ELISA, TCE on captured CD3.

For assay [32], the target named is T23, TCE-27 (anti-CD3 scFv Y234A; anti-TROP2 wt).
T23 construct: scFv on the Fab heavy chain
Description: competition ELISA, TCE on captured CD3.

The target in assay [33] is T24, TCE-32 (anti-CD3 scFv V239A; anti-TROP2 wt).
T24 construct: scFv on the Fab heavy chain
Description: competition ELISA, TCE on captured CD3.

In assay [34] the target is T25, TCE-9 (anti-CD3 scFv V99A; anti-TROP2 wt).
T25 construct: scFv on the Fab heavy chain
In words: competition ELISA, TCE on captured CD3.

Assay [35] addresses T26, TCE-24 (anti-CD3 scFv V231A; anti-TROP2 wt).
T26 construct: scFv on the Fab heavy chain
In words: competition ELISA, TCE on captured CD3.

Assay [36] deals with T14, TCE-33 (anti-CD3 scFv F240A; anti-TROP2 …). Description: competition ELISA, TCE on captured CD3. The source holds these as a separate data set.
Assay [37] has as its target T27, Peptide-67 (cysteine pairing not given here; also: biotinylated, site not given here).
T27 construct: mask peptide for the CD3 scFv
T27 peptide: VYCGPEFDESVGCM
In words: ELISA, TCE on captured biotin-peptide.

Assay [38] addresses T28, Peptide-74 (cysteine pairing not given here; also: biotinylated, site not given here).
T28 construct: mask peptide for the CD3 scFv
T28 peptide: ASQCLGPEWEVCPY
In words: ELISA, TCE on captured biotin-peptide.

Assay [39] addresses T29, Peptide-72 (cysteine pairing not given here; also: biotinylated, site not given here).
T29 construct: mask peptide for the CD3 scFv
T29 peptide: AYCGPEFDESVGCM
Description: ELISA, TCE on captured biotin-peptide.

For assay [40], the target named is T30, Peptide-68 (cysteine pairing not given here; also: biotinylated, site not given here).
T30 construct: mask peptide for the CD3 scFv
T30 peptide: DWCWYSPDNDGLCD
In words: ELISA, TCE on captured biotin-peptide.

In assay [41] the target is B1. Description: ELISA, TCE on captured biotin-peptide.
Assay [42] concerns the target T31, Peptide-75 (cysteine pairing not given here; also: biotinylated, site not given here).
T31 construct: mask peptide for the CD3 scFv
T31 peptide: GSACLGPEWEVCPY
Description: ELISA, TCE on captured biotin-peptide.

Assay [43] addresses T32, Peptide-69 (cysteine pairing not given here; also: biotinylated, site not given here).
T32 construct: mask peptide for the CD3 scFv
T32 peptide: SECLVDLQSDPCYW
In words: ELISA, TCE on captured biotin-peptide.

Assay [44] addresses T33, Peptide-71 (cysteine pairing not given here; also: biotinylated, site not given here).
T33 construct: mask peptide for the CD3 scFv
T33 peptide: VDCGPDGDESILCY
In words: ELISA, TCE on captured biotin-peptide.

Assay [45] addresses T34, Peptide-66 (cysteine pairing not given here; also: biotinylated, site not given here).
T34 construct: mask peptide for the CD3 scFv
T34 peptide: GSQCLGPEWEVCPY
Description: ELISA, TCE on captured biotin-peptide.

The target in assay [46] is T35, Peptide-77 (cysteine pairing not given here; also: biotinylated, site not given here).
T35 construct: mask peptide for the CD3 scFv
T35 peptide: YLCGPDTDETLACY
Description: ELISA, TCE on captured biotin-peptide.

In assay [47] the target is B1. Description: ELISA, TCE on captured biotin-peptide.
In assay [48] the target is T36, Peptide-76 (cysteine pairing not given here; also: biotinylated, site not given here).
T36 construct: mask peptide for the CD3 scFv
T36 peptide: YLCGPDADETLACY
In words: ELISA, TCE on captured biotin-peptide.

The target of assay [49] is T37, Peptide-70 (cysteine pairing not given here; also: biotinylated, site not given here).
T37 construct: mask peptide for the CD3 scFv
T37 peptide: YLCGPDGDETLACY
In words: ELISA, TCE on captured biotin-peptide.

The target in assay [50] is T38, CD3 (biotinylated CD3 antigen) (human, UniProt P07766 23-126, limits assumed, biotinylated (site not stated)).
T38 construct: also called CD3ε; human CD3
In words: ELISA, TCE on captured biotin-CD3.

The term IC50 denotes the concentration that gives 50% inhibition. Low values mean higher potency, high ones lower potency. Regarding B1, the IC50 in [1] is 1630 nM; in [2], 60 nM; in assay [3] it was 40 nM; in [4] it was 10 nM; in [5], 4620 nM; in assay [6], 200 nM. The IC50 in assay [7] stood at 2930 nM; in assay [8] it was 4070 nM; in assay [9], 3000 nM; in assay [10], 3000 nM; in assay [11] it was 39100 nM; in [12] it was 25900 nM. Further, the IC50 in assay [13] is 2200 nM; in assay [14] it was 16800 nM; in assay [15], 50 nM; in assay [16] it was 70 nM; in assay [17], 230 nM; in assay [18], over 3000 nM. The IC50 in [19] is 420 nM; in assay [20], 1900 nM; in assay [21], 650 nM; in assay [22], 140 nM; in assay [23], over 3000 nM; in assay [24] it was 1220 nM. The IC50 amounted to 100 nM in assay [25]; 110 nM in assay [26]; 820 nM in assay [27]; 230 nM in [28]; 310 nM in [29]; 140 nM in [30]. For the same molecule, the IC50 in [31] turned out to be 100 nM; in assay [32] it was 620 nM; in [33], 60 nM; in [34], 160 nM; in [35] it was 230 nM; in assay [36], 3020 nM.

By EC50 is commonly meant the concentration at which the effect is half-maximal. Higher therefore signals a need for much substance. B2: the EC50 is 0.66 nM in assay [37]; 3.46 nM in assay [38]; 0.76 nM in assay [39]; 0.16 nM in assay [40]; 0.83 nM in assay [41]; 3.82 nM in [42]. The EC50 in [43] is 0.95 nM; in [44] it was 1.92 nM; in assay [45], 3.65 nM.

As for B3, the EC50 was found to be 336 nM in assay [46]; 8.87 nM in [47]; 222 nM in assay [48]; 0.62 nM in [49]; 0.95 nM in [50].

These data come from US20230357429A1 (JANUX THERAPEUTICS, published 2023).
